Laboratory results reported in patent US7252951B2, “Essential downstream component of the wingless signaling pathway and therapeutic and diagnostic applications based thereon” (Universität Zurich, priority 2000, dated 2007).

B1: hLgs/Bcl9(279–392): Fragment (amino acids 279–392) of human Lgs/Bcl9 with a sequence homology domain, expressed as EGFP fusion from pcDNA3 (protein)
chain: PGVENKLIPSVGSPASSTPLPPDGTGPNSTPNNRAVTPVSQGSNSSSADPKAPPPPPVSSGEPPTLGENPDGLSQEQLEHRERSLQTLRDIQRMLFPDEKEFTGAQSGGPQQNP
modifications: left off: large carriers
B2: hLgs/Bcl9(199–392): Fragment (amino acids 199–392) of human Lgs/Bcl9 with a sequence homology domain, expressed as EGFP fusion from pcDNA3 (protein)
chain: TIVSFHIQNISNNKTERSTAPLNTQISALRNDPKPLPQQPPAPANQDQNSSQNTRLQPTPPIPAPAPKPAAPPRPLDRESPGVENKLIPSVGSPASSTPLPPDGTGPNSTPNNRAVTPVSQGSNSSSADPKAPPPPPVSSGEPPTLGENPDGLSQEQLEHRERSLQTLRDIQRMLFPDEKEFTGAQSGGPQQNP
modifications: left off: large carriers

System: Arm-Tcf transcriptional activity
Experiment: Tcf-reporter gene (TOPFLASH luciferase) assay in HEK293 cells
Format: cell-based
Conditions: 4 ng pcDNA3-ΔArm, 200 ng pcDNA3-EGFP-hLgs-peptide, 48 h after transfection, normalized for renilla luciferase
Procedure: FIG. 15(A) Effect of the expression of Lgs sequence homology 2-peptides on Tcf transcriptional activity. HEK293 cells at 50% confluence were plated into 24-well plates and transfected by a lipofection method. 240 ng of TOPFLASH luciferase reporter plasmid (Upstate biotechnology, New York, USA), 4 ng of pcDNA3-ΔArm, 200 ng of pcDNA3-EGFP-Lgs-peptide and 10 ng of a renilla luciferase reporter plasmid pRL-SV40 (Promega Corporation, Madison USA) were diluted into 25 μl of OPTI-MEM Medium (Life Technologies, Inc.) and combined with 1.2 μl of Lipofectamine (Life Technologies, Inc.) in 25 μl OPTI-MEM. After incubation for 20 min, 0.175 ml of OPTI-MEM was added and the mixtures were overlaid onto monolayers of cells. After culturing at 37° C./5% CO2 for 6 hr, 0.225 ml of OPTI-MEM containing 20% FCS was added to the cultures. […]
The effect of Lgs on Tcf transactivation activity can be performed in a cell culture system using a Tcf reporter gene. A Tcf-responsive reporter gene is a contruct which comprises a readily detectable or assayable gene such β-galactosidase, green fluorescent protein, chloramphenicol acetyltransferase or luciferase, linked in cis to a Tcf response element and a minimal promoter. […]

Molecule | Arm-Tcf transcriptional activity (Tcf-driven luciferase)
B1 | strongly inhibit
B2 | strongly inhibit
